Biological target: RecA (UniProt P0A7G6 P0A7G6:2-353)
Assay: FP; positive control; 10 mM Mg acetate, 2 mM ATP, 37 C
Conditions: tags: New England Biolabs; label: 5' fluorescein
Experimental: FIG. 2A, bottom: Purified RAD51 protein (wild type or mutant F86E) were serially diluted. RecA (New England Biolabs) was used as a positive control. Proteins were added to a 5′terminal fluorescein conjugated oligonucleotide (45 bases of dT) at a 1 μM nucleotide concentration. The mixture was incubated at 37° C. for 30 minutes in 384-well plates containing a reaction buffer (30 mM Tris/acetate pH 7.5, 10 mM Mg²⁺/acetate, 2 mM ATP, 0.1 mM DTT, 0.5 μM BSA). Fluorescence polarization was measured with a plate reader (filters: excitation=485 nm, emission=510 nm). FIG. 2B, top: Varying concentrations of 5′terminal fluorescein conjugated oligonucleotide were used to determine the threshold RAD51 concentration.
RAD51 filament formation can also be studied using oligonucleotides that are end-labeled with a fluorescent tag. Binding of proteins to this substrate DNA can be detected as an increase in anisotropy (or polarization) of the fluorescent tag. This method has been used to monitor the DNA-binding activity of yeast RAD51 (Kim et al., 2001) and RecA (Wittung et al., 1997; Ellouze et al., 1999), which is the […] homolog of RAD51. In this example, this method was modified so that very small sample volumes (30 μl) can be monitored in a high-throughput scale, using 384-well plates and a fluorescent plate reader. […]

Chain of RecA (P0A7G6 2-353, one chain of several): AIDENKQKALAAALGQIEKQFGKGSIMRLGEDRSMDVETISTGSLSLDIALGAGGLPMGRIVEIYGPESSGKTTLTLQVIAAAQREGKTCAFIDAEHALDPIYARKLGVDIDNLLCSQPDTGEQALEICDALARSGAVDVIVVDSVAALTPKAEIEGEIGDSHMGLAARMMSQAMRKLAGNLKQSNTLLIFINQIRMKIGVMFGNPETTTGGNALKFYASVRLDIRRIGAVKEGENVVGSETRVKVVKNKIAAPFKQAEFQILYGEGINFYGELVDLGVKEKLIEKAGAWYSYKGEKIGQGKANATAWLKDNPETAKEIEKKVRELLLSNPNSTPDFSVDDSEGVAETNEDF

**Q.** Does TTTTTTTTTTTTTTTTTTTTTTTTTTTTTTTTTTTTTTTTTTTTT (ssDNA) [oligo dT45] bind?
**A.** Result: binds

— patent US20140142103, “Methods and Compositions for Modulating Rad51 and Homologous Recombination” (The University of Chicago, published 2014)
